T1: S63A
T1 construct: also called hCD27 S63A
T1 receptor: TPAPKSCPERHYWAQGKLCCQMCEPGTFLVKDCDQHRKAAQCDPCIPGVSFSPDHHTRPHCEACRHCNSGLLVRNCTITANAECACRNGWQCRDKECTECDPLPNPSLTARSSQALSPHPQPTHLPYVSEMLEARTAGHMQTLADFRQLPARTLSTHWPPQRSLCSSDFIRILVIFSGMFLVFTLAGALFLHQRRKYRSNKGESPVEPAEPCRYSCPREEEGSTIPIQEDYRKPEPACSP

T2: E9A
T2 construct: also called hCD27 E9A
T2 receptor: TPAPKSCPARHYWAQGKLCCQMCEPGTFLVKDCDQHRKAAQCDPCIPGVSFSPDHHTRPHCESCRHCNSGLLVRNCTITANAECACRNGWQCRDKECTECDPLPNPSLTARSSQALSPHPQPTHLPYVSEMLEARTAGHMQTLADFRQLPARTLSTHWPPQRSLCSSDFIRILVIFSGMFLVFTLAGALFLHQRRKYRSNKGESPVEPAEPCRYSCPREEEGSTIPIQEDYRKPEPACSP

T3: D43A
T3 construct: also called hCD27 D43A
T3 receptor: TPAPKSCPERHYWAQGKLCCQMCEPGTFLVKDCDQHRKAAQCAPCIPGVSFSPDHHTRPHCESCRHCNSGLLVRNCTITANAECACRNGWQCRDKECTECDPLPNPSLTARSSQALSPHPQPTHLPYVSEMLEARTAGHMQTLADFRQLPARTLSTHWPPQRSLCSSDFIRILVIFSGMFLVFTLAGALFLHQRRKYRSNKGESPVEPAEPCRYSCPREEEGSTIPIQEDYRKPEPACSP

T4: H36A
T4 construct: also called hCD27 H36A
T4 receptor: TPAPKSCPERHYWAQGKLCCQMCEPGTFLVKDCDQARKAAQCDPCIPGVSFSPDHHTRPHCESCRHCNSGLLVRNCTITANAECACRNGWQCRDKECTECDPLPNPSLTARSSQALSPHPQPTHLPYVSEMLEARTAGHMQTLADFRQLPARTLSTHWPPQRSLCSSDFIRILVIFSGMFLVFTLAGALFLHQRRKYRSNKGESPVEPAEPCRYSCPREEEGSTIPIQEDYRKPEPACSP

T5: R10A
T5 construct: also called hCD27 R10A
T5 receptor: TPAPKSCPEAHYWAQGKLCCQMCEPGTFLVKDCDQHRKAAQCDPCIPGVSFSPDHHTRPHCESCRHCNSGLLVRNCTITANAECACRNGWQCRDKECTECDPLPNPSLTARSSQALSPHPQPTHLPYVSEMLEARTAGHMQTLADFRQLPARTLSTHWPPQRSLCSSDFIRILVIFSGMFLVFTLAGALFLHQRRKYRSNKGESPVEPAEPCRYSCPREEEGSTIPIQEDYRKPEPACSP

T6: D32A
T6 construct: also called hCD27 D32A
T6 receptor: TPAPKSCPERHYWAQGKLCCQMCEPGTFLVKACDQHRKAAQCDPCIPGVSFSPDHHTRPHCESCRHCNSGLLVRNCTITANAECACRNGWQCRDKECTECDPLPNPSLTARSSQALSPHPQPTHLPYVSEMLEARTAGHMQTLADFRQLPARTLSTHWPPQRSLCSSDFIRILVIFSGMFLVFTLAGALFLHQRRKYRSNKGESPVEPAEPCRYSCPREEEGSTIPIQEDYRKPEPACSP

T7: P8A
T7 construct: also called hCD27 P8A
T7 receptor: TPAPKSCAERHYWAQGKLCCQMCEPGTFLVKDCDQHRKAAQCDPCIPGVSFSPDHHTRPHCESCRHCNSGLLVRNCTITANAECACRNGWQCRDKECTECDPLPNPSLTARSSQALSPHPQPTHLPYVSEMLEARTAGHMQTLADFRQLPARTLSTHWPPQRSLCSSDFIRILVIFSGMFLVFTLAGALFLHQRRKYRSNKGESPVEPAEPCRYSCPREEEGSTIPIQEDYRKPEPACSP

T8: K17A
T8 construct: also called hCD27 K17A
T8 receptor: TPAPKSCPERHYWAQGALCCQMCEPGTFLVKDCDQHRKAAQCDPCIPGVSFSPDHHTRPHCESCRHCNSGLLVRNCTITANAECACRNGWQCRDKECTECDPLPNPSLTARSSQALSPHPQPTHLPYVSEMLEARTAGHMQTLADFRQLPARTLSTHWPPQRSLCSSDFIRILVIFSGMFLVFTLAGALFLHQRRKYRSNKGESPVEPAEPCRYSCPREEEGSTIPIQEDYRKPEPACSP

T9: G16A
T9 construct: also called hCD27 G16A
T9 receptor: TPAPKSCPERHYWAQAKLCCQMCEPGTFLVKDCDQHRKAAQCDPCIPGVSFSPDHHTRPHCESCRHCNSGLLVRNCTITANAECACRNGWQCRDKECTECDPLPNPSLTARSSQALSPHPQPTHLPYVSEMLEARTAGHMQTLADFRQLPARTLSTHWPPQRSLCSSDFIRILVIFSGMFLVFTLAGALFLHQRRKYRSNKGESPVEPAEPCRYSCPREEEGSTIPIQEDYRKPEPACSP


Columns and labels:
S63A = biological target: T1, S63A; test: flow cytometry, CHO-K1; sub-column 2 of 2
E9A [1] = biological target: T2, E9A; test: flow cytometry, CHO-K1; sub-column 2 of 2
D43A = biological target: T3, D43A; test: flow cytometry, CHO-K1; sub-column 2 of 2
H36A [2] = biological target: T4, H36A; test: flow cytometry, CHO-K1; sub-column 2 of 2
R10A = biological target: T5, R10A; test: flow cytometry, CHO-K1; sub-column 2 of 2
D32A [3] = biological target: T6, D32A; test: flow cytometry, CHO-K1; sub-column 2 of 2
P8A = biological target: T7, P8A; test: flow cytometry, CHO-K1; sub-column 2 of 2
K17A = biological target: T8, K17A; test: flow cytometry, CHO-K1; sub-column 1 of 2
G16A = biological target: T9, G16A; test: flow cytometry, CHO-K1; sub-column 1 of 2
E9A [4] = biological target: T2, E9A; test: flow cytometry, CHO-K1; sub-column 1 of 2
H36A [5] = biological target: T4, H36A; test: flow cytometry, CHO-K1; sub-column 1 of 2
D32A [6] = biological target: T6, D32A; test: flow cytometry, CHO-K1; sub-column 1 of 2

Row | % of WT hCD27 binding (geo mean FITC) (S63A) [%] | % of WT hCD27 binding (geo mean FITC) (E9A [1]) [%] | % of WT hCD27 binding (geo mean FITC) (D43A) [%] | % of WT hCD27 binding (geo mean FITC) (H36A [2]) [%] | % of WT hCD27 binding (geo mean FITC) (R10A) [%] | % of WT hCD27 binding (geo mean FITC) (D32A [3]) [%] | % of WT hCD27 binding (geo mean FITC) (P8A) [%] | % of WT hCD27 binding (geo mean FITC) (K17A) [%] | % of WT hCD27 binding (geo mean FITC) (G16A) [%] | % of WT hCD27 binding (geo mean FITC) (E9A [4]) [%] | % of WT hCD27 binding (geo mean FITC) (H36A [5]) [%] | % of WT hCD27 binding (geo mean FITC) (D32A [6]) [%] | Molecule
1 | 163 | 122 | 93.4 | 85.2 | 113 | 8.7 | 79.1 | 32.4 | 90.8 | 98.2 | 111 | 43.7 | 1A4 (mouse IgG1) (antibody)
2 | 149 | 109 | 92.5 | 66.5 | 99 | 66.3 | 62.2 | 98 | 94.7 | 96.6 | 88.5 | 118 | 9F4 (mouse IgG2a) (antibody)
3 | 141 | 132 | 96.2 | 10.8 | 108 | 62.1 | 15.9 | 103 | 94.8 | 96.7 | 54.1 | 113 | Antibody hCD27.131A (mouse parental 131A) (antibody, V domains shown, mouse IgG1; also called mouse hCD27.131A) VH: QIQLVQSGPELKKPGETVKISCKASGYTFTNYGMNWVKQAPGKGLKWMGWINTNTGEPTYAEEFKGRFAFSLETSATTAYLQINNLKNEDTATYFCAREGDAMDYWGQGTSVTVSS VL: QIVLTQSPAIMSASPGEKVTMTCSASSSVSYMHWYQQKSGTSPKRWIYDTSKLASGVPARFSGSGSGTSYSLTISSMEAEDAATYYCQQWNSYPFTFGSGTKLEIK

— US20190300618A1 (Merck Sharp & Dohme, published 2019)
